One test addresses HVEM (Homo sapiens) (UniProt Q92956). The note with it: cited from earlier work.
In test [1] the target is HSV-1 glycoprotein D, C-terminal truncated mutant gD285 (aa 1-285) (herpes simplex virus type 1 (HSV-1)). Kind of test: AUC; sedimentation velocity, gD alone at 5, 10 and 20 uM in PBS pH 7.8, 20 C, 40k rpm, absorbance optics, c(s) distributions in SedFit; monomer and dimer species, said not to be in a monomer-dimer equilibrium.
Test [2] addresses HSV-1 glycoprotein D, C-terminal truncated mutant gD306 (aa 1-306) (herpes simplex virus type 1 (HSV-1)). Described as above.

These results are taken from publication PMC9678342.

UniProt Q92956, sequence (Q92956 39-283): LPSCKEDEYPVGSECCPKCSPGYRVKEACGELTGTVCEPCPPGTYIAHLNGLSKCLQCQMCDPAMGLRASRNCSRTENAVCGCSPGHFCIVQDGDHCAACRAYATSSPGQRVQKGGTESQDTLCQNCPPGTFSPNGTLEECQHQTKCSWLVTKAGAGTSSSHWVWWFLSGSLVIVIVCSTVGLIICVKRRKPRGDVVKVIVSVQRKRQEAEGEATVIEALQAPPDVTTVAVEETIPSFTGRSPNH

Turning to “glycoprotein D (gD285) gD285 (from UniProt Q69091)”, in the test with HVEM (Homo sapiens), the dissociation constant (Kd) was 37 nM. For “HSV-1 glycoprotein D, C-terminal truncated mutant gD285 (aa 1-285) (domain or fragment)”, the stoichiometry N in test [1] is 2. “HSV-1 glycoprotein D, C-terminal truncated mutant gD306 (aa 1-306) (domain or fragment)”: the stoichiometry N in test [2] was 2.
